PMC11623273

Target: Fab fragment of neutralizing antibody HCV1
Sequence (heavy, as listed by the source, chain 1 of 2): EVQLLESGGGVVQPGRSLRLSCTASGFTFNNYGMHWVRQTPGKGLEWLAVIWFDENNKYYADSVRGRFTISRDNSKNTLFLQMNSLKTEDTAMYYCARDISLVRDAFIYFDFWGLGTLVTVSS
Sequence (light, as listed by the source, chain 2 of 2): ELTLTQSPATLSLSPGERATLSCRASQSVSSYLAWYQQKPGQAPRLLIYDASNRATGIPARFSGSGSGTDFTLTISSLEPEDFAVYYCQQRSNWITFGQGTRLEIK

Chain of soluble HCV E2 ectodomain (sE2) (domain or fragment) (Q99IB8 384-719): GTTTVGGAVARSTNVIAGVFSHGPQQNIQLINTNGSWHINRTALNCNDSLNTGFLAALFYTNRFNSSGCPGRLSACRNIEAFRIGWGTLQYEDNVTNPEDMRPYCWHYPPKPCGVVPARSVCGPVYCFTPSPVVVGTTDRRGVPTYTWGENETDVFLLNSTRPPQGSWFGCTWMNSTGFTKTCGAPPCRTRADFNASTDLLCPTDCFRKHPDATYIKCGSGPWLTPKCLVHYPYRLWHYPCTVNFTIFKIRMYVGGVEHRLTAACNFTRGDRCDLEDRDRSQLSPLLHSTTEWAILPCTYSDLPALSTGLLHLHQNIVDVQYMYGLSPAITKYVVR

soluble HCV E2 ectodomain (sE2) (domain or fragment)
Kd: 294 nM | koff: 0.00435 s⁻¹ | kon: 14800 M⁻¹ s⁻¹
